Experimental data published in publication PMC8646042.

Target: T1, endogenous IRF3 (human (endogenous in 293T)), Q14653
T1 chain: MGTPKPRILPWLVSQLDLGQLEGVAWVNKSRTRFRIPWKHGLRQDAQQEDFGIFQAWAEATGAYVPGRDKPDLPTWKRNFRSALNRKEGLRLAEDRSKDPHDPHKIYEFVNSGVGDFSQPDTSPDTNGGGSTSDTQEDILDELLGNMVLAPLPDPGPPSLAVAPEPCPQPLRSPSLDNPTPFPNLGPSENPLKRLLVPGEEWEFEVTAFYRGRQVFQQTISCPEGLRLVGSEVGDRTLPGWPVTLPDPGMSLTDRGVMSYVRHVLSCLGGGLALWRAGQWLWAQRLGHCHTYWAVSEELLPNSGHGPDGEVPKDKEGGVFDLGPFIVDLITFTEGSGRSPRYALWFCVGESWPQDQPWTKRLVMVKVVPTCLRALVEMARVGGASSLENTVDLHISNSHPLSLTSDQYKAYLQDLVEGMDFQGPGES
Test: native gel or EMSA; Native PAGE of lysates of 293T or MCF7 cells and western blot with anti-IRF3; SeV infection for 12 h or MAVS transfection; N4BP3 overexpressed, knocked down or knocked out
Settings: remark: other sources report otherwise

stoichiometry N: 2
B1: endogenous IRF3, Q14653 1-427 (natural protein)
chain: T1 chain
